Experimental data taken from patent publication US20240309070A1.
Blank lines part the entries; values can stand above or below the substance they belong to.

Assays:
[1] = target: human insulin (human) (UniProt P01308); test: polyreactivity ELISA, insulin coated, antibody 10 µg/mL, signal normalised to non-coated well
[2] = target: tEGFR (truncated EGFR) on vector-only transduced T cells (Homo sapiens (Human)) (UniProt P00533)
[3] = target: Western Reserve B5 on cells infected with VVddeGFP Western Reserve virus (Vaccinia virus, Western Reserve strain) (UniProt Q01227); test: flow cytometry, HT29 cells infected with WR VV (negative control)
[4] = target: Western Reserve B5 on cells infected with VVddeGFP Western Reserve virus (Vaccinia virus, Western Reserve strain) (UniProt Q01227); test: flow cytometry, SKOV3 cells infected with WR VV (negative control)
[5] = target: Copenhagen B5 on cells infected with VVCopenhagen (YFP) virus (Vaccinia virus, Copenhagen strain) (UniProt P21115); test: flow cytometry, HT29 cells infected with Copenhagen VV (negative control)

Polyreactivity Insulin Score [1]: 2.9 score
Substance: Infliximab (antibody)

Substance: VV B5 monomer protein (Wyeth Vaccinia strain B5 with C-terminal AVI tag and HIS6 tag) (from UniProt O57254 18-279)
CAR+ % Parent [2]: 1.54%

Substance: human IgG1k isotype control (antibody)
EC50 [3]: 0.02 nM
EC50 [4]: 0.01 nM
EC50 [5]: 0.01 nM
